Numbering of substitutions follows the chain as printed. In names and notes the source's numbering stands.
B1: Fab VH5-51_IGHD5-18*01>3_IGHJ4*01 G100K/G104T/G24L/S28R/G35V (KT LRV) & V3-4_IGLJ1*01 (Fab, V domains shown)
VH: EVQLVQSGAEVKKPGESLKISCKLSGYRFTSYWIVWVRQMPGKGLEWMGIIYPGDSDTRYSPSFQGQVTISADKSISTAYLQWSSLKASDTAMYYCARRKYSYTYDYFDYWGQGTLVTVSS
VL: QTVVTQEPSFSVSPGGTVTLTCGLSSGSVSTSYYPSWYQQTPGQAPRTLIYSTNTRSSGVPDRFSGSILGNKAALTITGAQADDESDYYCVLYMGSGISYVFGTGTKVTVL
notes: Tested as Fab; CH1 with His6/Flag tags (plasmid A) and lambda CL (plasmid E) come from the expression vectors
B2: Fab VH5-51_IGHD5-18*01>3_IGHJ4*01 G100K/G104T/S28R (KT S28R) & V3-4_IGLJ1*01 (Fab, V domains shown)
VH: B1 VH with L24G, V35G
VL: B1 VL
notes: as for B1
B3: Fab VH5-51_IGHD5-18*01>3_IGHJ4*01 G100K/G104T/G24A/S28R/G35V (KT ARV) & V3-4_IGLJ1*01 (Fab, V domains shown)
VH: B1 VH with L24A
VL: B1 VL
notes: as for B1
B4: Fab VH5-51_IGHD5-18*01>3_IGHJ4*01 G100K/G104T/G24T/S28R/G35V (KT TRV) & V3-4_IGLJ1*01 (Fab, V domains shown)
VH: B1 VH with L24T
VL: B1 VL
notes: Tested as Fab; CH1 with His6/Flag tags (plasmid A) and lambda CL (plasmid E) come from the expression vectors; also called H:KT TRV & L:wt
B5: Fab VH5-51_IGHD5-18*01>3_IGHJ4*01 G100K/G104T F29A & V3-4_IGLJ1*01 (Fab, V domains shown)
VH: B1 VH with L24G, R28S, F29A, V35G
VL: B1 VL
notes: Fab expressed in E. coli with CH1 (plasmid A, His6 and Flag tags) and lambda CL (plasmid E); also called KT F29A
B6: Fab VH5-51_IGHD5-18*01>3_IGHJ4*01 G100K/G104T T30A & V3-4_IGLJ1*01 (Fab, V domains shown)
VH: B1 VH with L24G, R28S, T30A, V35G
VL: B1 VL
notes: Fab expressed in E. coli with CH1 (plasmid A, His6 and Flag tags) and lambda CL (plasmid E); also called KT T30A
B7: Fab VH5-51_IGHD5-18*01>3_IGHJ4*01 G100K/G104T G24A & V3-4_IGLJ1*01 (Fab, V domains shown)
VH: B1 VH with L24A, R28S, V35G
VL: B1 VL
notes: Fab expressed in E. coli with CH1 (plasmid A, His6 and Flag tags) and lambda CL (plasmid E); also called KT G24A
B8: Fab VH5-51_IGHD5-18*01>3_IGHJ4*01 G100K/G104T G35A & V3-4_IGLJ1*01 (Fab, V domains shown)
VH: B1 VH with L24G, R28S, V35A
VL: B1 VL
notes: Fab expressed in E. coli with CH1 (plasmid A, His6 and Flag tags) and lambda CL (plasmid E); also called KT G35A
B9: Fab VH5-51_IGHD5-18*01>3_IGHJ4*01 G100K/G104T S28A & V3-4_IGLJ1*01 (Fab, V domains shown)
VH: B1 VH with L24G, R28A, V35G
VL: B1 VL
notes: Fab expressed in E. coli with CH1 (plasmid A, His6 and Flag tags) and lambda CL (plasmid E); also called KT S28A
B10: Fab VH5-51_IGHD5-18*01>3_IGHJ4*01 G100K/G104T G35T & V3-4_IGLJ1*01 (Fab, V domains shown)
VH: B1 VH with L24G, R28S, V35T
VL: B1 VL
notes: Fab from E. coli: VH-CH1 from Plasmid A with His6 and Flag tags, VL with lambda CL from Plasmid E; also called KT G35T
B11: Fab VH5-51_IGHD5-18*01>3_IGHJ4*01 G100K/G104T G35V & V3-4_IGLJ1*01 (Fab, V domains shown)
VH: B1 VH with L24G, R28S
VL: B1 VL
notes: Fab from E. coli: VH-CH1 from Plasmid A with His6 and Flag tags, VL with lambda CL from Plasmid E; also called KT G35V
B12: Fab VH5-51_IGHD5-18*01>3_IGHJ4*01 G100K/G104T S28R & V3-4_IGLJ1*01 (Fab, V domains shown)
VH: B1 VH with L24G, V35G
VL: B1 VL
notes: Fab from E. coli: VH-CH1 from Plasmid A with His6 and Flag tags, VL with lambda CL from Plasmid E; also called KT S28R

target: T1, Recombinant Human DLL4 (R&D Systems Cat#1506-D4/CF) (human, UniProt Q9NR61 27-524); assay: ECL (MSD) binding assay, Fab on immobilized recombinant human DLL4
T1 construct: also called rHuman DLL4; delta-like protein 4

Row | ECL signal | Binder
1 | 15300 | B1
2 | 6420 | B2
3 | 17400 | B3
4 | 26100 | B4

target: T2, Recombinant Human DLL4 (human, UniProt Q9NR61 27-524); assay: ECL (MSD) multispot binding assay, DLL4 spotted on plate, purified Fab in solution; signal over blank
T2 construct: Bought recombinant human DLL4 (R&D Systems Cat#1506-D4/CF); That entry includes the signal peptide (amino acids 1-25), the transmembrane region and the cytoplasmic domain; also called delta-like protein 4; Delta-like ligand 4

Row | ECL Signal/Blank | Binder
5 | 67.9 | B5
6 | 69.4 | B6
7 | 122 | B7
8 | 180 | B8
9 | 112 | B9

target: T3, Recombinant Human DLL4 (delta-like protein 4) (human, UniProt Q9NR61 27-524); assay: ECL (MSD) binding assay, Fab on immobilized DLL4
T3 construct: also called rHuman DLL4; Delta-like 4

Row | ECL signal | Binder
10 | 14500 | B10
11 | 21200 | B11
12 | 51400 | B12

target: T3, Recombinant Human DLL4 (delta-like …); assay: ELISA, Fab on plate-coated DLL4

Row | ELISA (Signal-Noise) | Binder
13 | 0.07 | B10
14 | 0.09 | B11
15 | 0.29 | B12

target: T2, Recombinant Human DLL4; assay: ELISA, DLL4 coated on plate, Fab in solution, absorbance at 450 nm; signal minus noise

Row | ELISA (Signal-Noise) | Binder
16 | 0.02 | B5
17 | 0 | B6
18 | 0.02 | B7
19 | 0.02 | B8
20 | 0.01 | B9

— US20120316071A1 (published 2012)
